Data reported in US20200139098A1, “DELIVERY SYSTEM AND PROCESS” (POLYPHARMA PTY LTD, priority 2006, published 2020).

Tested on: rabbit eyes
Test: Distribution of Avastin in sectioned rabbit eyes by fluorescence and DIC microscopy, after intravitreal injection or sonophoresis from a hydrogel
Type: in vivo
Description: As described above, the delivery system or device can be used to deliver molecules and/or nanoparticles to the eye of a patient. Once delivered to the surface of the eye, the molecules and/or nanoparticles can penetrate the outer surface of the eye and diffuse to the posterior parts of the eye. For example, FIGS. 14 to 19 are optical microscope images of sectioned rabbit eyes imaged by Differential Interference Contrast (DIC) phase contrast imaging and fluorescence imaging, illustrating the distribution of the monoclonal antibody Avastin to various parts of the eye. Each of these six Figures includes two panels, comprising a left-hand panel showing a fluorescence image, and a right-hand panel showing a white light DIC phase contrast image. FIGS. 14 to 16 illustrate the distribution of Avastin delivered by intravitreal injection, whereas FIGS. 17 to 19 show the distribution of Avastin delivered from a hydrogel by sonophoresis of five minute duration. The red colour in the fluorescence images indicates a secondary antibody bound to Avastin. Consequently, the red colour indicates the location of Avastin in the tissues of the eye.
The vitreous humor is not visible in the “white-light” DIC images because the sections are mounted on the slides using a 90% glycerol solution in order to stabilise the cover slip and the section during the confocal microscopy. The glycerol has a similar refractive index to the vitreous humor.

In the case of “Avastin: the monoclonal antibody Avastin”, the “presence of Avastin in vitreous humor (staining)” value (rabbit eye (LE), Sonoactuator: hydrogel, sonophoresis of five minute duration) was “not visibly stained”, the “presence of Avastin in vitreous (red staining)” value (rabbit eye (RE), intravitreal injection) was “abundant presence” and the “staining of ciliary body for Avastin” value (rabbit eye, delivery from the gel with ultrasound) was “does not stain well”. For the same substance, the “staining of ciliary body and iris for Avastin” value (rabbit eye, intravitreal injection) was “heavily stained” and the “delivery of Avastin to choroid and retina” value (rabbit eye, non-invasive delivery from hydrogel under ultrasonic stimulation (FIGS. 17 to 19)) was “non-invasively delivered to the choroid and retina”.
